In test [1] the test system is C5aR with mutations Y11F and Y14F. To be noted: cited from earlier work. The text has this:
In line with our results, intrinsic binding energies have been previously described for intramolecular binding events inv ...

In test [2] the target is T1, human C5aR (C5aR^WT) (Homo sapiens, UniProt P21730).
T1 construct: Flag (N); made in house; host or cells: HEK-293S GnTI- cells (BacMam baculovirus)
T1 sequence (P21730 1-350): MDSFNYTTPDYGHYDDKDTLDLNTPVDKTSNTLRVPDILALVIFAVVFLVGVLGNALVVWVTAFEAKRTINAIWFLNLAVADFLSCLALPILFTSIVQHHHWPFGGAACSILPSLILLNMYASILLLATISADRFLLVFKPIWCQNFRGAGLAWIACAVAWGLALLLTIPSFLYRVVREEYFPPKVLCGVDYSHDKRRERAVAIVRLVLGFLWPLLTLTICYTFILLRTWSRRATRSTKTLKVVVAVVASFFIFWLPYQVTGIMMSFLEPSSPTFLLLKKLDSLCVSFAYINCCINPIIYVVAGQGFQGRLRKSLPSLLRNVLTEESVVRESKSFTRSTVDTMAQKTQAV
In words: FD-/FV-based AFM dynamic force spectroscopy (FNdY model) of ligand-functionalized tip vs wild-type C5aR. Type of test: binding. As to conditions: FNdY fit. How it is done:
(§1) The reconstituted C5aR sample solution (either wt-C5aR or mutants) was 20-fold diluted in fusion buffer solution (20 mM HEPES, 300 mM NaCl, and 25 mM MgCl2) and adsorbed on freshly cleaved mica for 15 min. After rinsing with imaging buffer (20 mM HEPES and 300 mM NaCl) the sample was transferred to the AFM.
(§2) Rectangular Si3N4 AFM cantilevers with silicon tips (BioLever mini, Bruker) were first cleaned with chloroform for 10 min, rinsed with ethanol, N2 dried, and then cleaned for 15 min in an ultraviolet radiation and ozone cleaner (UV-O, Jetlight, CA, USA). For the aminofunctionalization, the cantilevers were immersed in an ethanolamine solution (3.3 g ethanolamine in 6.6 ml DMSO) overnight and then rinsed in DMSO (3 × 1 min) and ethanol (3 × 1 min), followed by N2 drying. This was followed by the N-hydroxysuccinimide (NHS)-PEG27-acetal linker attachment. A 1 mg portion of the NHS-PEG27-acetal linker (JKU, Linz, Austria) was diluted in 0.5 ml chloroform with 30 µl triethylamine and the cantilevers were immersed in this solution for 2 h. After three rinsing steps of 10 min in chloroform and N2 drying, the cantilevers were immersed in a 1% citric acid solution for 10 min, rinsed with pure water (3 × 5 min), and dried with N2 once more. tris-NTA-derivatized AFM cantilevers were obtained by pipetting 100 µl of a 100 µM tris-N-nitrilotriacetic amine trifluoroacetate (Toronto Research Chemicals, Canada) (tris-NTA) solution onto the cantilevers, followed by the addition of 2 μl of a freshly prepared 1 M NaCNBH3 solution. The cantilevers were incubated for 1 h, then 5 μl of a 1 M ethanolamine solution pH 8.0 was added for 10 min to quench the reaction. tris-NTA cantilevers were further used to obtain C5a-derivatized tips. For this purpose, 100 μl of a 1 μM C5a protein solution was premixed with 5 μl NiCl2 5 mM and the mixture was pipetted onto the tris-NTA cantilevers. After 2 h of incubation time, the cantilevers were washed in HEPES buffer 3 × 5 min.
(§3) (JKU, Linz, Austria) dissolved in 0.5 ml of chloroform with 30 μl of triethylamine, then washed with chloroform and dried with N2. […] After 3 h of reaction, cantilevers were washed with PBS 3 × 5 min.
(§4) AFM experiments were performed with a Multimode 8 AFM equipped with a Nanoscope V controller (Bruker, Santa Barbara, CA, USA) operated in “PeakForce Tapping QNM mode”. All measurements were carried out in imaging buffer at room temperature (≈24 °C). For the high-resolution characterization of C5aR topographical features, triangular Si3N4 cantilevers (Scanasyst-Fluid+, Bruker) with a sharpened tetrahedral silicon tip of ≈2 nm radius, nominal spring constants of 0.35 N m^−1, and resonance frequency in liquid of ≈75 kHz were used. Multiparametric FD-based AFM measurements with derivatized tips were carried out using BioLever mini cantilevers (Bruker, Santa Barbara) having nominal spring constants of 0.1 N m^−1 and resonance frequency in liquid of ≈25 kHz. The spring constant was calibrated at the end of each experiment for all cantilevers used in this study using the thermal noise method.
(§5) In FD-based AFM measurements, the AFM cantilever is oscillated in a sinusoidal manner well below its resonance frequency, while the sample surface is contoured pixel-by-pixel. For each approach–retraction cycle of the oscillating cantilever, a force–distance curve is recorded. Multiparametric FD-based AFM height, Young’s modulus, and adhesion maps are then obtained from a pixel-by-pixel reconstruction of the acquired data. Overview FD-based AFM maps were acquired by scanning the sample at 1 Hz and a resolution of 512 × 512 pixels, using a force setpoint of ≈150 pN, a 2 kHz oscillation frequency, and a peak-to-peak oscillation amplitude of 100 nm. Adhesion maps were recorded using a scan rate of 0.2 Hz and 256 × 256 pixels. The functionalized AFM cantilever was oscillated at 0.25 kHz with peak-to-peak oscillation amplitudes of 100 nm.

Test [3] has as its system human C5aR (C5aR^WT). The test is described as above. To be noted: sum of C5aR + PMX53 and C5aR∆Tyr values. Type of test: binding. The procedure:
as §1, §2, §3, §4, §5

The subject of a further test is C5aR∆Tyr. Briefly: FD-/FV-based AFM dynamic force spectroscopy vs Tyr mutant (Y11F, Y14F). Type of test: binding, human. To be noted: C5a tip (probes effector site), FNdY fit.
Description: Finally, to obtain the full picture of the binding mechanism between C5a and its receptor, we also investigated the binding interaction between the C-terminal segment of C5a and the effector site. To achieve this, we abolished the interaction that the rigid core of C5a establishes with sulfonated residues at the binding site, so the C5aR∆Tyr mutant with mutation sites Y11F and Y14F was generated. The lack of sulfonation on the C5aR∆Tyr mutant was validated by western blot using anti-sulfated tyrosine antibodies (Fig. S1). The interaction between the C5a ligand and C5aR∆Tyr was measured and the dependence of the rupture force with the loading rate was plotted in the DFS graph in Fig. 5d. We extracted an equilibrium force Feq of 32 ± 5 pN, a binding equilibrium free energy ΔGbu of −4.7 ± 1.4 kcal mol^−1, and a receptor–ligand half-residence time, τ0.5 of 0.6 ms.
as §1
Rectangular Si3N4 AFM cantilevers with silicon tips (BioLever mini, Bruker) were first cleaned with chloroform for 10 min, rinsed with ethanol, N2 dried, and then cleaned for 15 min in an ultraviolet radiation and ozone cleaner (UV-O, Jetlight, CA, USA). For the aminofunctionalization, the cantilevers were immersed in an ethanolamine solution (3.3 g ethanolamine in 6.6 ml DMSO) overnight and then rinsed in DMSO (3 × 1 min) and ethanol (3 × 1 min), followed by N2 drying. This was followed by the N-hydroxysuccinimide (NHS)-PEG27-acetal linker attachment. A 1 mg portion of the NHS-PEG27-acetal linker (JKU, Linz, Austria) was diluted in 0.5 ml chloroform with 30 µl triethylamine and the cantilevers were immersed in this solution for 2 h. […]

Where [4] appears, read: C5a tip vs C5aR^WT incubated with PMX53 (effector site blocked; probes binding site), ± s.e.m.

This is an account of results in PMC7749166 (Communications Biology, 2020).

B1: C5a: C5a, a large 74-amino acid glycoprotein; endogenous ligand of C5aR (His6-tag at N-terminal end for AFM tips) (protein)
chain: TLQKKIEEIAAKYKHSVVKKCCYDGACVNNDETCEQRAARISLGPRCIKAFTECCVVASQLRANISHKDMQLGR
modifications: left off: His6, N-terminal, kept
As for B1, the “signaling of C5aR induced by C5a upon Y11F and Y14F mutations” value in test [1] was “could almost abolish the signaling of C5aR”. Besides, the “residence time τ0.5” value turned out to be 0.2 ms with human C5aR (C5aR^WT) [2] (C5a tip vs C5aR^WT incubated with PMX53 (effector site blocked; probes binding site)); 0.6 ms with human C5aR (C5aR^WT) [2] (ligand-derivatized AFM tip, 20 mM HEPES, 300 mM NaCl, ≈24 °C); 0.6 ms in the test with C5aR∆Tyr. The “equilibrium force Feq” value came to 29 ± 4 pN in the test with human C5aR (C5aR^WT) [2] (setting [4]); 46 ± 7 pN in the test with human C5aR (C5aR^WT) [2] (± s.e.m., ligand-derivatized AFM tip, C5aR in DOPC/CHS liposomes on mica, 20 mM HEPES, 300 mM NaCl, ≈24 °C); 32 ± 5 pN in the test with C5aR∆Tyr (± s.e.m.). Moreover, the “free energy ΔGbu” value with human C5aR (C5aR^WT) [2] (setting [4]) is -3.9 ± 1.8 kcal/mol. Also, the “binding equilibrium free energy ΔGbu” value in the test with human C5aR (C5aR^WT) [2] (± s.e.m., ligand-derivatized AFM tip, 20 mM HEPES, 300 mM NaCl, ≈24 °C) was -13.6 ± 4.1 kcal/mol; in the test on C5aR∆Tyr (± s.e.m.), -4.7 ± 1.4 kcal/mol. In addition, the “sum of binding free energy of both sites measured individually, ΔGbu (binding site+effector site)” value in the test with human C5aR (C5aR^WT) [3] was roughly -8.6 ± 2.3 kcal/mol.
